Tests used:
[1] = molecular target: NS5A domain I (35-215) P145A; experiment: GST pulldown, Western blot quantification (Li-Cor Odyssey Sa); details: parent: est. 7.4; read off a plot
GST control protein = experiment: as above; details: parent: est. 0.78; read off a plot
[2] = molecular target: NS5A domain I (35-215) V67A; experiment: as above; details: parent: est. 7.4; read off a plot
[3] = system: NS5A domain I WT (Hepatitis C virus JFH-1 (genotype 2a)); experiment: filter binding; details: Binding buffer and temperature not given (as in ref 32); slot blot nitrocellulose/nylon, hyperbolic fit; protein dialyzed in 20 mM Tris-HCl pH 8.2, 150 mM …
[4] = molecular target: NS5A domain I (35-215) P35A; experiment: GST pulldown, Western blot quantification (Li-Cor Odyssey Sa); details: parent: est. 7.4; read off a plot

Row | Substance | response [1] | response (GST control protein) | response [2] | Kd [3] [µM] | response [4]
1 | NS5A domain I (35-215), wild type P145A | 1.3 | 0.34 |  |  | 
2 | NS5A domain I (35-215), wild type V67A |  | 0.15 | 0.39 |  | 
3 | HCV 3'UTR RNA |  |  |  | 0.246 | 
4 | NS5A domain I (35-215), wild type P35A |  | 0.34 |  |  | 2.5

Reference: PMC5792032
